Data set [1] addresses wild-type RKIP, cardiac transgene (RKIP-tg).
In data set [2] the target is RKIP^S153A, cardiac transgene.

B1: G protein-coupled receptor kinase (GRK) in mouse heart lysates (protein)
chain: MADLEAVLADVSYLMAMEKSKATPAARASKKILLPEPSIRSVMQKYLEDRGEVTFEKIFSQKLGYLLFRDFCLNHLEEAKPLVEFYEEIKKYEKLETEEERVVRSREIFDSYIMKELLACSHPFSKNATEHVQGHLVKKQVPPDLFQPYIEEICQNLRGDVFQKFIESDKFTRFCQWKNVELNIHLTMNDFSVHRIIGRGGFGEVYGCRKADTGKMYAMKCLDKKRIKMKQGETLALNERIMLSLVSTGDCPFIVCMSYAFHTPDKLSFILDLMNGGDLHYHLSQHGVFSEADMRFYAAEIILGLEHMHNRFVVYRDLKPANILLDEHGHVRISDLGLACDFSKKRPHASVGTHGYMAPEVLQKGVAYDSSADWFSLGCMLFKLLRGHSPFRQHKTKDKHEIDRMTLTMAVELPDSFSPELRSLLEGLLQRDVNRRLGCLGRGAQEVKESPFFRSLDWQMVFLQKYPPPLIPPRGEVNAADAFDIGSFDEEDTKGIKLLDSDQELYRNFPLTISERWQQEVAETVFDTINAETDRLEARKKAKNKQLGHEEDYALGKDCIVHGYMSKMGNPFLTQWQRRYFYLFPNRLEWRGEGEAPQSLLTMEEIQSVEETQIKERKCLLLKIRGGKQFVLQCDSDPELVQWKKELRDAYREAQQLVQRVPKMKNKPRSPVVELSKVPLIQRGSANGL
For the protein B1, the “GRK activity (in vitro rhodopsin phosphorylation with heart lysates; immunoblot of β2AR phosphorylation)” value in data set [1] is on record as “GRK activity was significantly reduced in mouse hearts of RKIP-tg”; in data set [2] it was “GRK activity was significantly reduced in mouse hearts of RKIP-tg but not of RKIP^S153A mice”.

These data come from US20180179292.
